This test deals with Human ACE2 with Fc tag (human) (UniProt Q9BYF1). The test is described as follows: SPR.
Human ACE2 with Fc tag (human), sequence (Q9BYF1 18-740): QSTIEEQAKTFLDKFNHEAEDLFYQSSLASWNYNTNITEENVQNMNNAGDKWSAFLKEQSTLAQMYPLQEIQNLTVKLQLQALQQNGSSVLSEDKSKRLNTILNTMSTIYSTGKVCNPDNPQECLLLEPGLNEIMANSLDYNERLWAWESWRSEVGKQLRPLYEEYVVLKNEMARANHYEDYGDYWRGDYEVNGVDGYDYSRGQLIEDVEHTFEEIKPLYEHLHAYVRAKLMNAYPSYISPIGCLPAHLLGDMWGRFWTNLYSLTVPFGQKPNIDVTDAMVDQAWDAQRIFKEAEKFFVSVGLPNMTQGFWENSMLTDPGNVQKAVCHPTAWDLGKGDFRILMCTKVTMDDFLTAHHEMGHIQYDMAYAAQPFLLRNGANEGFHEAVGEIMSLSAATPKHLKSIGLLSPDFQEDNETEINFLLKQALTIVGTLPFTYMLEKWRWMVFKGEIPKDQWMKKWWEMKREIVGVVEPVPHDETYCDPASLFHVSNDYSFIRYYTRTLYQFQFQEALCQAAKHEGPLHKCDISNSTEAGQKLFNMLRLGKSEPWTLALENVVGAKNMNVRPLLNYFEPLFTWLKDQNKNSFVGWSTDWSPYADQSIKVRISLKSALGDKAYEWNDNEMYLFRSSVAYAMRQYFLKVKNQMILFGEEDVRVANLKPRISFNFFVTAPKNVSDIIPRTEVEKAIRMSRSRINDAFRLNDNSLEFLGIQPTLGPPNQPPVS

WT RBD displayed a dissociation constant (Kd) of 16 nM and a koff of 0.0051 s⁻¹.

For the origin of these results see publication PMC10764275.
